Results reported in publication PMC12657218, “The Panoptes system uses decoy cyclic nucleotides to defend against phage” (Nature, 2025).
Values belong to the compound of their own block, whether it stands above or below them.

Tests used:
[1] = biological target: T1, Acb2 (Tequatrovirus T4, UniProt P13314); test: isothermal titration calorimetry; format: binding; settings: read-out: apparent Kd
T1 construct: full-length, N-terminal 6xHis-hSUMO2 tag cleaved with hSENP2; expressed in E. coli
T1 sequence (P13314 1-88): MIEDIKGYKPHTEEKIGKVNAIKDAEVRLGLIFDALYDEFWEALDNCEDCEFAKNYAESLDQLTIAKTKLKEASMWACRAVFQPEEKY

[2] = biological target: T2, VnOptS (Vibrio navarrensis, UniProt A0A099LXT1); format: biochemical; settings: MnCl2 1 mM, MgSO4 10 mM, 20 mM HEPES-KOH pH 7.4, 100 mM NaCl; with ATP, GTP, UTP, CTP; from ATP and GTP
T2 construct: gene EA26_14275; N-terminal His6 tag with or without hSUMO2; expressed in E. coli

[3] = biological target: OptS from Klebsiella pneumoniae KP67 (minimal CRISPR polymerase, mCpol) (Klebsiella pneumoniae KP67); test: mass photometry; KpOptS at 50 nM in 20 mM HEPES pH 7.5, 250 mM KCl, room temperature; β-amylase as calibration standard
[4] = biological target: OptS from Klebsiella pneumoniae KP67 (minimal CRISPR polymerase, mCpol) (Klebsiella pneumoniae KP67); test: SEC; HiLoad 16/600 Superdex 200 pg, 20 mM HEPES pH 7.5, 250 mM KCl, 1 mM TCEP-KOH; elution volume compared with molecular weight standards
[5] = biological target: OptS from Klebsiella pneumoniae KP67 (minimal CRISPR polymerase, mCpol) (Klebsiella pneumoniae KP67); test: crystal structure; apo KpOptS, 1.75 Å, four copies in the asymmetric unit; crystals from 8% PEG 4000, hanging drop, room temperature

Compound: Nc1ncnc2c1ncn2[C@@H]1O[C@@H]2COP(=O)(O)O[C@@H]3[C@H](O)[C@@H](COP(=O)(O)O[C@H]2[C@H]1O)O[C@H]3n1cnc2c(N)ncnc21 [2′,3′-c-di-AMP]
Kd [1]: ~62 nM

Compound: Nc1nc2c(ncn2[C@@H]2O[C@@H]3COP(=O)(O)O[C@@H]4[C@H](O)[C@@H](COP(=O)(O)O[C@H]3[C@H]2O)O[C@H]4n2cnc3c(N)ncnc32)c(=O)[nH]1 [3′,2′-cGAMP]
HPLC and MS of products [2]: The most abundant product of the in vitro reactions was a linkage isomer of cyclic GMP-AMP

stoichiometry N [3]: 4
stoichiometry N [4]: > 2
stoichiometry N [5]: 4
Compound: OptS from Klebsiella pneumoniae KP67 (minimal CRISPR polymerase, mCpol) (enzyme)
